Experimental data as given in publication PMC9860250.
Like-named read-outs stand apart in the source and are kept apart here.

T1: Lsm2-8 heteroheptameric ring (UniProt P38203;P57743;P40070;P40089;Q06406;P53905;P47093 …)
T1 sequence 1: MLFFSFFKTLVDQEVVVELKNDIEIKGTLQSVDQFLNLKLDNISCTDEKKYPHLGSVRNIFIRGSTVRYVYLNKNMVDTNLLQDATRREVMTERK
T1 sequence 2: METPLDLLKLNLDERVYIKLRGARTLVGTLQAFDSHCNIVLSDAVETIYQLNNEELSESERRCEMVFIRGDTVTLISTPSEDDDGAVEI
T1 sequence 3: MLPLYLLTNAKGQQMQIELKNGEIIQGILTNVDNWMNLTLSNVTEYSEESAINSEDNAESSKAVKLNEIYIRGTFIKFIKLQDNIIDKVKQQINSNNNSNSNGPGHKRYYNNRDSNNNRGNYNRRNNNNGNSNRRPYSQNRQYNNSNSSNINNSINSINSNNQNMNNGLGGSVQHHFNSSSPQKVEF
T1 sequence 4: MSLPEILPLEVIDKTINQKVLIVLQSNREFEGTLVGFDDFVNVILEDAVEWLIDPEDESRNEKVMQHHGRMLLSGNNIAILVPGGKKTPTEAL
T1 sequence 5: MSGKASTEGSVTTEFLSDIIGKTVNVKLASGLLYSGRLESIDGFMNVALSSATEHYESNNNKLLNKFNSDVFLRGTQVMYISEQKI
T1 sequence 6: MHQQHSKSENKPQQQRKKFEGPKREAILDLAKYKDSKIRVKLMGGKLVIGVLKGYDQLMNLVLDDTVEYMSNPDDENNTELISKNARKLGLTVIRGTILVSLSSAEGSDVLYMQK
T1 sequence 7: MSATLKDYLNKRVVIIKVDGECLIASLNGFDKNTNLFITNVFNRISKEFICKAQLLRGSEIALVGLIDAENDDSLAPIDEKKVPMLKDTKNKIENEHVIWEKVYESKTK


What was measured:
[1] = target: T1, Lsm2-8 heteroheptameric ring; experiment: EMSA
[2] = target: T1, Lsm2-8 heteroheptameric ring; experiment: EMSA; remark: listed apart in the source

Binder | binding result [1] | binding result [2]
U6_WT/U2_WT helix II (dsRNA, 3'-phosphate on U6) RNA 1: UACAAAGAGAUUUAUUUCGUUUU RNA 2: ACGAAUCUCUUUGCCUUUUGGCUUAGAU | binds | –
UACAAAGAGAUUUAUUUCGUUUU (ssRNA, 3'-phosphate) [U6_WT] | – | binds
